The source of these data is article PMC9206684.

The term stoichiometry N denotes a count of units in the complex or per binding partner.

For assay [1], the target named is GST-tagged IGF2BP2 (human), Q9Y6M1. Kind of assay: cross-linking; cell suspension with 1.25 mM DSS, 30 min, 37 °C; nondenaturing lysis and PAGE, Western blot; monomer 65 kDa, homodimer 130 kDa; HEK293T (GST-IGF2BP2) and OVCAR3/CAOV3 (endogenous, with Ct-OATP1B3 or IGF2BP2 knockdown or overexpression). As to conditions: remark: other sources report otherwise.
Assay [2] addresses insulin-like growth factor 2 mRNA-binding protein 2 (IGF2BP2), endogenous (human (endogenous in CAOV3 and OVCAR3)), Q9Y6M1. The description is as above. To be noted: remark: other sources report otherwise.

B1: GST-tagged IGF2BP2, Q9Y6M1 1-599 (natural protein)
chain: MMNKLYIGNLSPAVTADDLRQLFGDRKLPLAGQVLLKSGYAFVDYPDQNWAIRAIETLSGKVELHGKIMEVDYSVSKKLRSRKIQIRNIPPHLQWEVLDGLLAQYGTVENVEQVNTDTETAVVNVTYATREEAKIAMEKLSGHQFENYSFKISYIPDEEVSSPSPPQRAQRGDHSSREQGHAPGGTSQARQIDFPLRILVPTQFVGAIIGKEGLTIKNITKQTQSRVDIHRKENSGAAEKPVTIHATPEGTSEACRMILEIMQKEADETKLAEEIPLKILAHNGLVGRLIGKEGRNLKKIEHETGTKITISSLQDLSIYNPERTITVKGTVEACASAEIEIMKKLREAFENDMLAVNQQANLIPGLNLSALGIFSTGLSVLSPPAGPRGAPPAAPYHPFTTHSGYFSSLYPHHQFGPFPHHHSYPEQEIVNLFIPTQAVGAIIGKKGAHIKQLARFAGASIKIAPAEGPDVSERMVIITGPPEAQFKAQGRIFGKLKEENFFNPKEEVKLEAHIRVPSSTAGRVIGKGGKTVNELQNLTSAEVIVPRDQTPDENEEVIVRIIGHFFASQTAQRKIREIVQQVKQQEQKYPQGVASQRSK
Regarding B1, the stoichiometry N in assay [1] worked out at 2.

B2: insulin-like growth factor 2 mRNA-binding protein 2 (IGF2BP2), endogenous, Q9Y6M1 1-599 (natural protein)
chain: MMNKLYIGNLSPAVTADDLRQLFGDRKLPLAGQVLLKSGYAFVDYPDQNWAIRAIETLSGKVELHGKIMEVDYSVSKKLRSRKIQIRNIPPHLQWEVLDGLLAQYGTVENVEQVNTDTETAVVNVTYATREEAKIAMEKLSGHQFENYSFKISYIPDEEVSSPSPPQRAQRGDHSSREQGHAPGGTSQARQIDFPLRILVPTQFVGAIIGKEGLTIKNITKQTQSRVDIHRKENSGAAEKPVTIHATPEGTSEACRMILEIMQKEADETKLAEEIPLKILAHNGLVGRLIGKEGRNLKKIEHETGTKITISSLQDLSIYNPERTITVKGTVEACASAEIEIMKKLREAFENDMLAVNQQANLIPGLNLSALGIFSTGLSVLSPPAGPRGAPPAAPYHPFTTHSGYFSSLYPHHQFGPFPHHHSYPEQEIVNLFIPTQAVGAIIGKKGAHIKQLARFAGASIKIAPAEGPDVSERMVIITGPPEAQFKAQGRIFGKLKEENFFNPKEEVKLEAHIRVPSSTAGRVIGKGGKTVNELQNLTSAEVIVPRDQTPDENEEVIVRIIGHFFASQTAQRKIREIVQQVKQQEQKYPQGVASQRSK
For B2, the stoichiometry N in assay [2] was 2.
